In publication PMC2787667 (Cellular signalling, 2009):

What was measured:
Experiment in all cases: FRET or BRET
[1] = target: hFSHR(Y110A,H485A,S488A,M492A,I495A,F504A), as Rluc and GFP2 fusion proteins (human) (UniProt P23945)
[2] = target: hFSHR(H485A,S488A,M492A,I495A,F504A), as Rluc and GFP2 fusion proteins (human) (UniProt P23945)
[3] = target: the molecule itself

Chain of hFSHR(Y110A,H485A,S488A,M492A,I495A,F504A), as Rluc and GFP2 fusion proteins (P23945 18-695 Y110A/H485A/S488A/M492A/I495A, stated change not applied): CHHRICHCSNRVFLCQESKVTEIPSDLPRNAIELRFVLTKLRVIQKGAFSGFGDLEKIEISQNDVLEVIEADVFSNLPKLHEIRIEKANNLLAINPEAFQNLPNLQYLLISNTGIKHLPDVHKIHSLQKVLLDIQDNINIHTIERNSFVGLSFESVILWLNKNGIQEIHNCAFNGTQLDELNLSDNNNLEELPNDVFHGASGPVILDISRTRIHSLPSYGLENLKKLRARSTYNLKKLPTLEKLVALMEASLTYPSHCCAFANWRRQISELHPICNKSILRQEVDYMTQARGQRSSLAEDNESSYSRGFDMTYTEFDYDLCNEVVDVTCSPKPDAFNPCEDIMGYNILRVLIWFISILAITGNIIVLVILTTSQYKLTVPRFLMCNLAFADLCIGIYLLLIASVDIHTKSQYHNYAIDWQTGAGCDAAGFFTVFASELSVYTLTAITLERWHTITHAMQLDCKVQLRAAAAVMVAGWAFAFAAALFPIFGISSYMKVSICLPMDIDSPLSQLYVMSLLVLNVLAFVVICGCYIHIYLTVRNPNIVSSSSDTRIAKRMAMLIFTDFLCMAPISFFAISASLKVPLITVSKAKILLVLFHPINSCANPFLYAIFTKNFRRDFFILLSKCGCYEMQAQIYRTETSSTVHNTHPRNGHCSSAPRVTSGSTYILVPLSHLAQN
Chain of hFSHR(H485A,S488A,M492A,I495A,F504A), as Rluc and GFP2 fusion proteins (P23945 18-695 H485A/S488A/M492A/I495A, stated change not applied): as the sequence (P23945 18-695 Y110A/H485A/S488A/M492A/I495A, stated change not applied) above, with A93Y counted along it

Molecule | BRET50 mut/BRET50 wt [3] [ratio] | other results
hFSHR(Y110A,H485A,S488A,M492A,I495A,F504A), as Rluc and GFP2 fusion proteins (from UniProt P23945 18-695) (receptor) | – | BRET50 mut/BRET50 wt [1]: 1.29
hFSHR(H485A,S488A,M492A,I495A,F504A), as Rluc and GFP2 fusion proteins (from UniProt P23945 18-695) (receptor) | – | BRET50 mut/BRET50 wt [2]: 1.41
hFSHR(M490A,W494A,I495A), as Rluc and GFP2 fusion proteins (receptor, human, UniProt P23945 18-695, looked up) CHHRICHCSNRVFLCQESKVTEIPSDLPRNAIELRFVLTKLRVIQKGAFSGFGDLEKIEISQNDVLEVIEADVFSNLPKLHEIRIEKANNLLYINPEAFQNLPNLQYLLISNTGIKHLPDVHKIHSLQKVLLDIQDNINIHTIERNSFVGLSFESVILWLNKNGIQEIHNCAFNGTQLDELNLSDNNNLEELPNDVFHGASGPVILDISRTRIHSLPSYGLENLKKLRARSTYNLKKLPTLEKLVALMEASLTYPSHCCAFANWRRQISELHPICNKSILRQEVDYMTQARGQRSSLAEDNESSYSRGFDMTYTEFDYDLCNEVVDVTCSPKPDAFNPCEDIMGYNILRVLIWFISILAITGNIIVLVILTTSQYKLTVPRFLMCNLAFADLCIGIYLLLIASVDIHTKSQYHNYAIDWQTGAGCDAAGFFTVFASELSVYTLTAITLERWHTITHAMQLDCKVQLRHAASVAVMGAAFAFAAALFPIFGISSYMKVSICLPMDIDSPLSQLYVMSLLVLNVLAFVVICGCYIHIYLTVRNPNIVSSSSDTRIAKRMAMLIFTDFLCMAPISFFAISASLKVPLITVSKAKILLVLFHPINSCANPFLYAIFTKNFRRDFFILLSKCGCYEMQAQIYRTETSSTVHNTHPRNGHCSSAPRVTSGSTYILVPLSHLAQN | 1.5 | –
hFSHR(W436A,W494A), as Rluc and GFP2 fusion proteins (receptor, human, UniProt P23945 18-695, looked up) CHHRICHCSNRVFLCQESKVTEIPSDLPRNAIELRFVLTKLRVIQKGAFSGFGDLEKIEISQNDVLEVIEADVFSNLPKLHEIRIEKANNLLYINPEAFQNLPNLQYLLISNTGIKHLPDVHKIHSLQKVLLDIQDNINIHTIERNSFVGLSFESVILWLNKNGIQEIHNCAFNGTQLDELNLSDNNNLEELPNDVFHGASGPVILDISRTRIHSLPSYGLENLKKLRARSTYNLKKLPTLEKLVALMEASLTYPSHCCAFANWRRQISELHPICNKSILRQEVDYMTQARGQRSSLAEDNESSYSRGFDMTYTEFDYDLCNEVVDVTCSPKPDAFNPCEDIMGYNILRVLIWFISILAITGNIIVLVILTTSQYKLTVPRFLMCNLAFADLCIGIYLLLIASVDIHTKSQYHNYAIDAQTGAGCDAAGFFTVFASELSVYTLTAITLERWHTITHAMQLDCKVQLRHAASVMVMGAIFAFAAALFPIFGISSYMKVSICLPMDIDSPLSQLYVMSLLVLNVLAFVVICGCYIHIYLTVRNPNIVSSSSDTRIAKRMAMLIFTDFLCMAPISFFAISASLKVPLITVSKAKILLVLFHPINSCANPFLYAIFTKNFRRDFFILLSKCGCYEMQAQIYRTETSSTVHNTHPRNGHCSSAPRVTSGSTYILVPLSHLAQN | 1.29 | –
hFSHR(I382A,V383A,M490A,V491A), as Rluc and GFP2 fusion proteins (receptor, human, UniProt P23945 18-695, looked up) CHHRICHCSNRVFLCQESKVTEIPSDLPRNAIELRFVLTKLRVIQKGAFSGFGDLEKIEISQNDVLEVIEADVFSNLPKLHEIRIEKANNLLYINPEAFQNLPNLQYLLISNTGIKHLPDVHKIHSLQKVLLDIQDNINIHTIERNSFVGLSFESVILWLNKNGIQEIHNCAFNGTQLDELNLSDNNNLEELPNDVFHGASGPVILDISRTRIHSLPSYGLENLKKLRARSTYNLKKLPTLEKLVALMEASLTYPSHCCAFANWRRQISELHPICNKSILRQEVDYMTQARGQRSSLAEDNESSYSRGFDMTYTEFDYDLCNEVVDVTCSPKPDAFNPCEDIMGYNILRVLIWFISILAITGNIAALVILTTSQYKLTVPRFLMCNLAFADLCIGIYLLLIASVDIHTKSQYHNYAIDWQTGAGCDAAGFFTVFASELSVYTLTAITLERWHTITHAMQLDCKVQLRHAASVAAMGWIFAFAAALFPIFGISSYMKVSICLPMDIDSPLSQLYVMSLLVLNVLAFVVICGCYIHIYLTVRNPNIVSSSSDTRIAKRMAMLIFTDFLCMAPISFFAISASLKVPLITVSKAKILLVLFHPINSCANPFLYAIFTKNFRRDFFILLSKCGCYEMQAQIYRTETSSTVHNTHPRNGHCSSAPRVTSGSTYILVPLSHLAQN | 0.934 | –
hFSHR(Y110A), full-length, as Rluc and GFP2 fusion proteins (receptor, human, UniProt P23945 18-695, looked up) CHHRICHCSNRVFLCQESKVTEIPSDLPRNAIELRFVLTKLRVIQKGAFSGFGDLEKIEISQNDVLEVIEADVFSNLPKLHEIRIEKANNLLAINPEAFQNLPNLQYLLISNTGIKHLPDVHKIHSLQKVLLDIQDNINIHTIERNSFVGLSFESVILWLNKNGIQEIHNCAFNGTQLDELNLSDNNNLEELPNDVFHGASGPVILDISRTRIHSLPSYGLENLKKLRARSTYNLKKLPTLEKLVALMEASLTYPSHCCAFANWRRQISELHPICNKSILRQEVDYMTQARGQRSSLAEDNESSYSRGFDMTYTEFDYDLCNEVVDVTCSPKPDAFNPCEDIMGYNILRVLIWFISILAITGNIIVLVILTTSQYKLTVPRFLMCNLAFADLCIGIYLLLIASVDIHTKSQYHNYAIDWQTGAGCDAAGFFTVFASELSVYTLTAITLERWHTITHAMQLDCKVQLRHAASVMVMGWIFAFAAALFPIFGISSYMKVSICLPMDIDSPLSQLYVMSLLVLNVLAFVVICGCYIHIYLTVRNPNIVSSSSDTRIAKRMAMLIFTDFLCMAPISFFAISASLKVPLITVSKAKILLVLFHPINSCANPFLYAIFTKNFRRDFFILLSKCGCYEMQAQIYRTETSSTVHNTHPRNGHCSSAPRVTSGSTYILVPLSHLAQN | 1.74 | –
hFSHR(I381A,V491A), as Rluc and GFP2 fusion proteins (receptor, human, UniProt P23945 18-695, looked up) CHHRICHCSNRVFLCQESKVTEIPSDLPRNAIELRFVLTKLRVIQKGAFSGFGDLEKIEISQNDVLEVIEADVFSNLPKLHEIRIEKANNLLYINPEAFQNLPNLQYLLISNTGIKHLPDVHKIHSLQKVLLDIQDNINIHTIERNSFVGLSFESVILWLNKNGIQEIHNCAFNGTQLDELNLSDNNNLEELPNDVFHGASGPVILDISRTRIHSLPSYGLENLKKLRARSTYNLKKLPTLEKLVALMEASLTYPSHCCAFANWRRQISELHPICNKSILRQEVDYMTQARGQRSSLAEDNESSYSRGFDMTYTEFDYDLCNEVVDVTCSPKPDAFNPCEDIMGYNILRVLIWFISILAITGNAIVLVILTTSQYKLTVPRFLMCNLAFADLCIGIYLLLIASVDIHTKSQYHNYAIDWQTGAGCDAAGFFTVFASELSVYTLTAITLERWHTITHAMQLDCKVQLRHAASVMAMGWIFAFAAALFPIFGISSYMKVSICLPMDIDSPLSQLYVMSLLVLNVLAFVVICGCYIHIYLTVRNPNIVSSSSDTRIAKRMAMLIFTDFLCMAPISFFAISASLKVPLITVSKAKILLVLFHPINSCANPFLYAIFTKNFRRDFFILLSKCGCYEMQAQIYRTETSSTVHNTHPRNGHCSSAPRVTSGSTYILVPLSHLAQN | 1.69 | –
